For this assay, the target named is CXCL12 locked dimer (CXCL12-LD) (UniProt P48061). Nature of the assay: ITC. On the technique in general: ITC needs no label: the signal is the heat of the interaction.
CXCL12 locked dimer (CXCL12-LD), sequence (P48061 22-89 L57C/A86C): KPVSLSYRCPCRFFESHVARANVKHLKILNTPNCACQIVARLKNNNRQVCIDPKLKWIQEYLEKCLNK

B1: ACKR1^N-term, sixty-amino acid peptide corresponding to the extracellular N-terminus of ACKR1 (domain or fragment)
chain: MGNALHRAELSPSTENSSQLDFEDVWNSSYGVNDSFPDGDYGANLEAAAPAHSANLLDDS
B1: the KD of the first transition (sequential binding model) came to 6 nM and the stoichiometry N (usually a count of units in the complex or per binding partner) came to 1.

Source of the values: paper PMC9015690.
